# Assay results reported in the supplement of paper PMC5998384.
# Tests used:
# HeLa Kyoto [1] = assay: solubility in G1/S (NP-40 vs SDS abundance) (log2 ratio); higher = more soluble; conditions: cell cycle stage: G1/S
# HeLa Kyoto [2] = assay: thermal stability score vs G1/S (z-score of summed log2 fold changes over temperatures); higher = more thermally stable than in G1/S
# HeLa Kyoto [3] = assay: solubility change mitosis vs G1/S (difference of NP-40 vs SDS log2 ratios) (log2 ratio difference); higher = more soluble in mitosis
# HeLa Kyoto [4] = assay: melting temperature (median over replicates), in situ; higher = more thermally stable
# [5] = cell cycle stage: early G1 (4.5 h after nocodazole release)
# 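For melting temperature (median over replicates), in situ in this document: HeLa Kyoto cells synchronized by double thymidine or nocodazole block, proteins quantified by TMT10plex mass spectrometry, three independent biological replicates.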
# 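For solubility change mitosis vs G1/S (difference of NP-40 vs SDS log2 ratios) in this document: synchronized HeLa Kyoto cells (double thymidine block for G1/S, nocodazole release for mitosis), protein amounts in NP-40 versus SDS lysates quantified by mass spectrometry, three biological replicates.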
# 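For solubility in G1/S (NP-40 vs SDS abundance) in this document: HeLa Kyoto cells arrested at G1/S by double thymidine block, proteins quantified by TMT10plex mass spectrometry in mild NP-40 versus SDS extracts, three biological replicates.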
# 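For thermal stability score vs G1/S (z-score of summed log2 fold changes over temperatures) in this document: synchronized HeLa Kyoto cells, proteins quantified by TMT10plex mass spectrometry, three biological replicates, mitosis taken 0.5 h after nocodazole release, G1/S directly after double thymidine block.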
Sequence,solubility in G1/S (log2) (HeLa Kyoto [1]),thermal stability score (HeLa Kyoto [2]; [5]),thermal stability score (HeLa Kyoto [2]; cell cycle stage: mitosis),solubility change mitosis (log2) (HeLa Kyoto [3]),melting temperature (HeLa Kyoto [4]; cell cycle stage: G1/S),melting temperature (HeLa Kyoto [4]; cell cycle stage: mitosis)
MAEGDEAARGQQPHQGLWRRRRTSDPSAAVNHVSSTTSLGENYEDDDLVNSDEVMKKPCPVQIVLAHEDDHNFELDEEALEQILLQEHIRDLNIVVVSVAGAFRKGKSFLLDFMLRYMYNKDSQSWIGGNNEPLTGFTWRGGCERETTGIQVWNEVFVIDRPNGTKVAVLLMDTQGAFDSQSTIKDCATVFALSTMTSSVQVYNLSQNIQEDDLQHLQLFTEYGRLAMEEIYQKPFQTLMFLIRDWSYPYEHSYGLEGGKQFLEKRLQVKQNQHEELQNVRKHIHNCFSNLGCFLLPHPGLKVATNPSFDGRLKDIDEDFKRELRNLVPLLLAPENLVEKEISGSKVTCRDLVEYFKAYIKIYQGEELPHPKSMLQATAEANNLAAVAGARDTYCKSMEQVCGGDKPYIAPSDLERKHLDLKEVAIKQFRSVKKMGGDEFCRRYQDQLEAEIEETYANFIKHNDGKNIFYAARTPATLFAVMFAMYIISGLTGFIGLNSIAVLCNLVMGLALIFLCTWAYVKYSGEFREIGTVIDQIAETLWEQVLKPLGDNLMEENIRQSVTNSIKAGLTDQVSHHARLKTD [ATL2],-0.0336,-0.416,-0.584,-0.192,51.8 °C,51.8 °C
MAEGEDVPPLPTSSGDGWEKDLEEALEAGGCDLETLRNIIQGRPLPADLRAKVWKIALNVAGKGDSLASWDGILDLPEQNTIHKDCLQFIDQLSVPEEKAAELLLDIESVITFYCKSRNIKYSTSLSWIHLLKPLVHLQLPRSDLYNCFYAIMNKYIPRDCSQKGRPFHLFRLLIQYHEPELCSYLDTKKITPDSYALNWLGSLFACYCSTEVTQAIWDGYLQQADPFFIYFLMLIILVNAKEVILTQESDSKEEVIKFLENTPSSLNIEDIEDLFSLAQYYCSKTPASFRKDNHHLFGSTLLGIKDDDADLSQALCLAISVSEILQANQLQGEGVRFFVVDCRPAEQYNAGHLSTAFHLDSDLMLQNPSEFAQSVKSLLEAQKQSIESGSIAGGEHLCFMGSGREEEDMYMNMVLAHFLQKNKEYVSIASGGFMALQQHLADINVDGPENGYGHWIASTSGSRSSINSVDGESPNGSSDRGMKSLVNKMTVALKTKSVNVREKVISFIENTSTPVDRMSFNLPWPDRSCTERHVSSSDRVGKPYRGVKPVFSIGDEEEYDTDEIDSSSMSDDDRKEVVNIQTWINKPDVKHHFPCKEVKESGHMFPSHLLVTATHMYCLREIVSRKGLAYIQSRQALNSVVKITSKKKHPELITFKYGNSSASGIEILAIERYLIPNAGDATKAIKQQIMKVLDALES [TBC1D23],0.0926,0.43,0.147,0.0232,50.5 °C,50 °C
MAEHPPLLDTTQILSSDISLLSAPIVSADGTQQVILVQVNPGEAFTIRREDGQFQCITGPAQVPMMSPNGSVPPIYVPPGYAPQVIEDNGVRRVVVVPQAPEFHPGSHTVLHRSPHPPLPGFIPVPTMMPPPPRHMYSPVTGAGDMTTQYMPQYQSSQVYGDVDAHSTHGRSNFRDERSSKTYERLQKKLKDRQGTQKDKMSSPPSSPQKCPSPINEHNGLIKGQIAGGINTGSAKIKSGKGKGGTQVDTEIEEKDEETKAFEALLSNIVKPVASDIQARTVVLTWSPPSSLINGETDESSVPELYGYEVLISSTGKDGKYKSVYVGEETNITLNDLKPAMDYHAKVQAEYNSIKGTPSEAEIFTTLSCEPDIPNPPRIANRTKNSLTLQWKAPSDNGSKIQNFVLEWDEGKGNGEFCQCYMGSQKQFKITKLSPAMGCKFRLSARNDYGTSGFSEEVLYYTSGCAPSMPASPVLTKAGITWLSLQWSKPSGTPSDEGISYILEMEEETSGYGFKPKYDGEDLAYTVKNLRRSTKYKFKVIAYNSEGKSNPSEVVEFTTCPDKPGIPVKPSVKGKIHSHSFKITWDPPKDNGGATINKYVVEMAEGSNGNKWEMIYSGATREHLCDRLNPGCFYRLRVYCISDGGQSAVSESLLVQTPAVPPGPCLPPRLQGRPKAKEIQLRWGPPLVDGGSPISCYSVEMSPIEKDEPREVYQGSEVECTVSSLLPGKTYSFRLRAANKMGFGPFSEKCDITTAPGPPDQCKPPQVTCRSATCAQVNWEVPLSNGTDVTEYRLEWGGVEGSMQICYCGPGLSYEIKGLSPATTYYCRVQALSVVGAGPFSEVVACVTPPSVPGIVTCLQEISDDEIENPHYSPSTCLAISWEKPCDHGSEILAYSIDFGDKQSLTVGKVTSYIINNLQPDTTYRIRIQALNSLGAGPFSHMIKLKTKPLPPDPPRLECVAFSHQNLKLKWGEGTPKTLSTDSIQYHLQMEDKNGRFVSLYRGPCHTYKVQRLNESTSYKFCIQACNEAGEGPLSQEYIFTTPKSVPAALKAPKIEKVNDHICEITWECLQPMKGDPVIYSLQVMLGKDSEFKQIYKGPDSSFRYSSLQLNCEYRFRVCAIRQCQDSLGHQDLVGPYSTTVLFISQRTEPPASTNRDTVESTRTRRALSDEQCAAVILVLFAFFSILIAFIIQYFVIK [FNDC3A],-0.111,1.05,2.65,-0.0736,48.7 °C,49.1 °C
MAEMATATRLLGWRVASWRLRPPLAGFVSQRAHSLLPVDDAINGLSEEQRQLRQTMAKFLQEHLAPKAQEIDRSNEFKNLREFWKQLGNLGVLGITAPVQYGGSGLGYLEHVLVMEEISRASGAVGLSYGAHSNLCINQLVRNGNEAQKEKYLPKLISGEYIGALAMSEPNAGSDVVSMKLKAEKKGNHYILNGNKFWITNGPDADVLIVYAKTDLAAVPASRGITAFIVEKGMPGFSTSKKLDKLGMRGSNTCELIFEDCKIPAANILGHENKGVYVLMSGLDLERLVLAGGPLGLMQAVLDHTIPYLHVREAFGQKIGHFQLMQGKMADMYTRLMACRQYVYNVAKACDEGHCTAKDCAGVILYSAECATQVALDGIQCFGGNGYINDFPMGRFLRDAKLYEIGAGTSEVRRLVIGRAFNADFH [IVD],0.138,-0.748,-4.11,-0.107,54 °C,53.8 °C
MAENGDNEKMAALEAKICHQIEYYFGDFNLPRDKFLKEQIKLDEGWVPLEIMIKFNRLNRLTTDFNVIVEALSKSKAELMEISEDKTKIRRSPSKPLPEVTDEYKNDVKNRSVYIKGFPTDATLDDIKEWLEDKGQVLNIQMRRTLHKAFKGSIFVVFDSIESAKKFVETPGQKYKETDLLILFKDDYFAKKNEERKQNKVEAKLRAKQEQEAKQKLEEDAEMKSLEEKIGCLLKFSGDLDDQTCREDLHILFSNHGEIKWIDFVRGAKEGIILFKEKAKEALGKAKDANNGNLQLRNKEVTWEVLEGEVEKEALKKIIEDQQESLNKWKSKGRRFKGKGKGNKAAQPGSGKGKVQFQGKKTKFASDDEHDEHDENGATGPVKRAREETDKEEPASKQQKTENGAGDQ [SSB],0.66,2.85,0.442,-0.0733,49.3 °C,50.3 °C
MAENKGGGEAESGGGGSGSAPVTAGAAGPAAQEAEPPLTAVLVEEEEEEGGRAGAEGGAAGPDDGGVAAASSGSAQAASSPAASVGTGVAGGAVSTPAPAPASAPAPGPSAGPPPGPPASLLDTCAVCQQSLQSRREAEPKLLPCLHSFCLRCLPEPERQLSVPIPGGSNGDIQQVGVIRCPVCRQECRQIDLVDNYFVKDTSEAPSSSDEKSEQVCTSCEDNASAVGFCVECGEWLCKTCIEAHQRVKFTKDHLIRKKEDVSESVGASGQRPVFCPVHKQEQLKLFCETCDRLTCRDCQLLEHKEHRYQFLEEAFQNQKGAIENLLAKLLEKKNYVHFAATQVQNRIKEVNETNKRVEQEIKVAIFTLINEINKKGKSLLQQLENVTKERQMKLLQQQNDITGLSRQVKHVMNFTNWAIASGSSTALLYSKRLITFQLRHILKARCDPVPAANGAIRFHCDPTFWAKNVVNLGNLVIESKPAPGYTPNVVVGQVPPGTNHISKTPGQINLAQLRLQHMQQQVYAQKHQQLQQMRMQQPPAPVPTTTTTTQQHPRQAAPQMLQQQPPRLISVQTMQRGNMNCGAFQAHQMRLAQNAARIPGIPRHSGPQYSMMQPHLQRQHSNPGHAGPFPVVSVHNTTINPTSPTTATMANANRGPTSPSVTAIELIPSVTNPENLPSLPDIPPIQLEDAGSSSLDNLLSRYISGSHLPPQPTSTMNPSPGPSALSPGSSGLSNSHTPVRPPSTSSTGSRGSCGSSGRTAEKTSLSFKSDQVKVKQEPGTEDEICSFSGGVKQEKTEDGRRSACMLSSPESSLTPPLSTNLHLESELDALASLENHVKIEPADMNESCKQSGLSSLVNGKSPIRSLMHRSARIGGDGNNKDDDPNEDWCAVCQNGGDLLCCEKCPKVFHLTCHVPTLLSFPSGDWICTFCRDIGKPEVEYDCDNLQHSKKGKTAQGLSPVDQRKCERLLLYLYCHELSIEFQEPVPASIPNYYKIIKKPMDLSTVKKKLQKKHSQHYQIPDDFVADVRLIFKNCERFNEMMKVVQVYADTQEINLKADSEVAQAGKAVALYFEDKLTEIYSDRTFAPLPEFEQEEDDGEVTEDSDEDFIQPRRKRLKSDERPVHIK [TRIM33],0.105,2.02,4.15,-0.201,48.1 °C,49.7 °C
MAENPSLENHRIKSFKNKGRDVETMRRHRNEVTVELRKNKRDEHLLKKRNVPQEESLEDSDVDADFKAQNVTLEAILQNATSDNPVVQLSAVQAARKLLSSDRNPPIDDLIKSGILPILVKCLERDDNPSLQFEAAWALTNIASGTSAQTQAVVQSNAVPLFLRLLRSPHQNVCEQAVWALGNIIGDGPQCRDYVISLGVVKPLLSFISPSIPITFLRNVTWVIVNLCRNKDPPPPMETVQEILPALCVLIYHTDINILVDTVWALSYLTDGGNEQIQMVIDSGVVPFLVPLLSHQEVKVQTAALRAVGNIVTGTDEQTQVVLNCDVLSHFPNLLSHPKEKINKEAVWFLSNITAGNQQQVQAVIDAGLIPMIIHQLAKGDFGTQKEAAWAISNLTISGRKDQVEYLVQQNVIPPFCNLLSVKDSQVVQVVLDGLKNILIMAGDEASTIAEIIEECGGLEKIEVLQQHENEDIYKLAFEIIDQYFSGDDIDEDPCLIPEATQGGTYNFDPTANLQTKEFNF [KPNA3],0.128,1.67,4.62,-0.0814,49 °C,50.5 °C
MAEPLQPDPGAAEDAAAQAVETPGWKAPEDAGPQPGSYEIRHYGPAKWVSTSVESMDWDSAIQTGFTKLNSYIQGKNEKEMKIKMTAPVTSYVEPGSGPFSESTITISLYIPSEQQFDPPRPLESDVFIEDRAEMTVFVRSFDGFSSAQKNQEQLLTLASILREDGKVFDEKVYYTAGYNSPVKLLNRNNEVWLIQKNEPTKENE [HEBP2],0.297,0.153,-0.49,-0.0442,53.1 °C,53.6 °C
MAEPQPPSGGLTDEAALSCCSDADPSTKDFLLQQTMLRVKDPKKSLDFYTRVLGMTLIQKCDFPIMKFSLYFLAYEDKNDIPKEKDEKIAWALSRKATLELTHNWGTEDDETQSYHNGNSDPRGFGHIGIAVPDVYSACKRFEELGVKFVKKPDDGKMKGLAFIQDPDGYWIEILNPNKMATLM [GLO1],0.117,-0.959,-4.08,0.168,55.8 °C,54.5 °C
MAEPVGKRGRWSGGSGAGRGGRGGWGGRGRRPRAQRSPSRGTLDVVSVDLVTDSDEEILEVATARGAADEVEVEPPEPPGPVASRDNSNSDSEGEDRRPAGPPREPVRRRRRLVLDPGEAPLVPVYSGKVKSSLRLIPDDLSLLKLYPPGDEEEAELADSSGLYHEGSPSPGSPWKTKLRTKDKEEKKKTEFLDLDNSPLSPPSPRTKSRTHTRALKKLSEVNKRLQDLRSCLSPKPPQGQEQQGQEDEVVLVEGPTLPETPRLFPLKIRCRADLVRLPLRMSEPLQSVVDHMATHLGVSPSRILLLFGETELSPTATPRTLKLGVADIIDCVVLTSSPEATETSQQLQLRVQGKEKHQTLEVSLSRDSPLKTLMSHYEEAMGLSGRKLSFFFDGTKLSGRELPADLGMESGDLIEVWG [NFATC2IP],0.318,2.45,4.3,-0.0384,48.7 °C,51.5 °C
